Three molecules from patent publication US20260053961A1, “HETERODIMER AND RADIOACTIVE MEDICAL USE THEREOF” (HEXIN (SUZHOU) PHARMACEUTICAL TECHNOLOGY CO., LTD., priority 2022, published 2026) can be followed below.

The term amount remaining denotes the share of the starting amount still present when the sample was taken.

Series [1] is described as follows: PET/CT imaging of ^68Ga complexes in small animals. The conditions noted are these: NCr nude, mouse, in vivo, iv, 100 uCi, total radioactivity. It counts as in vivo, NCr nude mice. Here is the method: (§1) BxPC3 human pancreatic cancer cells are suspended in a mixture of 200 μL phosphate buffer and matrix gel (v/v, 1/1), and 2×10^6 cells were implanted subcutaneously into left shoulders of normal NCr nude mice (18-25 g, 4-6 weeks old). After an average of 1.5 weeks, a tumor diameter reached about 10 mm, which was sufficient for biodistribution and single-photon emission computed tomography-computed tomography (SPECT/CT) imaging studies.
(§2) PET-CT and image analysis were performed using a small-animal NovelMedcal PET-CT scanner (Beijing Yongxin). Maximum tangential and radial half-widths of the scanner in a center of field of view were 1.5 mm, and at an edge of the field of view were 1.8 mm.
(§3) About 100 μCi of each of the following complexes: ^68Ga-L00, ^68Ga-L11, ^68Ga-L12, ^68Ga-L13, and ^68Ga-L21, was injected into BxPC3 tumor-bearing mice via tail vein under isoflurane anesthesia, and each of the complexes was injected into four mice. Static PET-CT images were obtained for 15 min 0.5, 1, 2, 3, 4, 5 and 6 hours after intravenous injection. Distribution patterns of the five complexes at each time point were compared.
(§4) PET and CT images were acquired using NMSoft workstation software (Beijing Yongxin), and data were given as a percentage of injected dose per gram of tissue or organ (ID/g), and were determined through decay correction for each sample (standardized to a known weight of the injected dose. Normalization was performed during statistical analysis, and standardized uptake values (SUVs) were calculated according to the following formula: […]

For series [2], the system named is BxPC3 tumor-bearing mice. The experiment in a line: PET/CT imaging of ^68Ga complexes in small animals. The format is in vivo, NCr nude mice. The method, then:
as §1, §2, §3, §4

Series [3] can be described thus: Stability study: in vitro incubation at constant temperature (37° C.) in PBS, LC-MS/MS. It counts as physicochemical. Here is the method:
(§5) The experiment was carried out by using an in vitro incubation method at a constant temperature (37° C.) to study the stability of the compound ([…]) from Example L11 in murine plasma or PBS. The compound obtained from Example L11 was dissolved in 1 mL of mouse serum, respectively, and incubated in vitro at a constant temperature for 0 h, 0.5 h, 1 h, 4 h, 24 h, and 48 h, and a percentage of drug remaining was then measured and determined. PBS was used as a negative control group. Peak areas of the drug and an internal standard were measured using an LC-MS/MS method, and ratios of the peaks were used instead of the drug concentration for calculation.

The nature of series [4]: Stability study: in vitro incubation at constant temperature (37° C.) in murine plasma, LC-MS/MS. It counts as in vitro ADME. Here is the method:
as §5

Take `C[C@@H](O)[C@@H]1NC(=O)[C@H](CCCNC(=N)N)NC(=O)CNC(=O)[C@H](CC(N)=O)NC(=O)[C@H](Cc2ccc(O)cc2)NC(=O)[C@H](CCCCNC(=O)CCOCCOCCOCCOCCNC(=O)OCC2C3CCc4nnn(CCC(C(=O)N[C@@H](CCCCNC(=O)CCC(=O)N[C@@H](CCCCN)C(=O)O)C(=O)NCCOCCOCCOCCOCCC(=O)NCCCC[C@@H]5NC(=O)[C@@H](Cc6ccccc6)NC(=O)[C@H](CC(=O)O)NC(=O)CNC(=O)[C@H](CCCNC(=N)N)NC5=O)N5CCN(CC(=O)O)CCN(CC(=O)O)CCN(CC(=O)O)CC5)c4CCC32)NC1=O` (stereo partly shown) [^68Ga-L00, metal not drawn]: in series [1], the tissue to tissue ratio at 2 h is approximately 0.18. Besides, the “clearance of the drug” value in series [2] (mouse, in vivo) is reported as “rapidly metabolized through the kidneys”. Further, the “signals in the tumor tissue over time” value in series [2] (mouse, in vivo, iv) is given as “gradually weakened”.
Regarding `C[C@@H](O)[C@@H]1NC(=O)[C@H](CCCNC(=N)N)NC(=O)CNC(=O)[C@H](CC(N)=O)NC(=O)[C@H](Cc2ccc(O)cc2)NC(=O)[C@H](CCCCNC(=O)CCOCCOCCOCCOCCNC(=O)OCC2C3CCc4nnn(CCC(C(=O)N[C@@H](CCCCNC(=O)CCC(=O)N[C@@H](CCCCNC(=O)CCCc5ccc(C(F)(F)F)cc5)C(=O)O)C(=O)NCCOCCOCCOCCOCCC(=O)NCCCC[C@@H]5NC(=O)[C@@H](Cc6ccccc6)NC(=O)[C@H](CC(=O)O)NC(=O)CNC(=O)[C@H](CCCNC(=N)N)NC5=O)N5CCN(CC(=O)O)CCN(CC(=O)O)CCN(CC(=O)O)CC5)c4CCC32)NC1=O` (single isomer, unassigned) [^68Ga-L11, metal not drawn], the tissue to tissue ratio at 6 h in series [1] (about 6 hours after the injection, PET/CT, read-out: tumor-to-kidney ratio) was approximately 1.4. Also, in series [2] (MIP images and ROI regions), the “tumor-to-kidney ratio, rank among the five complexes” value was “highest among the five conjugates” and the “tumor-to-muscle ratio, rank among the five complexes” value is listed as “highest among the five conjugates”.
For `C[C@@H](O)[C@@H]1NC(=O)[C@H](CCCNC(=N)N)NC(=O)CNC(=O)[C@H](CC(N)=O)NC(=O)[C@H](Cc2ccc(O)cc2)NC(=O)[C@H](CCCCNC(=O)CCOCCOCCOCCOCCNC(=O)OCC2C3CCc4nnn(CCC(C(=O)N[C@@H](CCCCNC(=O)CCC(=O)N[C@@H](CCCCNC(=O)CCCc5ccc(C(F)(F)F)cc5)C(=O)O)C(=O)NCCOCCOCCOCCOCCC(=O)NCCCC[C@@H]5NC(=O)[C@@H](Cc6ccccc6)NC(=O)[C@H](CC(=O)O)NC(=O)CNC(=O)[C@H](CCCNC(=N)N)NC5=O)N5CCN(CC(=O)O)CCN(CC(=O)O)CCN(CC(=O)O)CC5)c4CCC32)NC1=O` (single isomer, unassigned) [Example L11, RGD-PEG4-Lys (—R—R1)-DOTA-click-PEG4-NGR], the “Percentage of drug remaining” value came to 100% in series [3] (0 h) and 100% in series [4] (murine plasma, 37° C., 0 h). The amount remaining at 0.5 h, 1 g/mL in series [3] (0.5 h, read-out: Percentage of drug remaining) came out at 99.3%; in series [4] (mouse, mouse plasma, murine plasma, 37° C., 0.5 h, read-out: Percentage of drug remaining), 98.5%. Also, the share remaining at 1 h, 1 g/mL worked out at 98.7% in series [3] (1 h, read-out: Percentage of drug remaining) and 98.4% in series [4] (mouse, mouse plasma, murine plasma, 37° C., 1 h, read-out: Percentage of drug remaining). Also, the amount remaining at 4 h, 1 g/mL in series [3] (4 h, read-out: Percentage of drug remaining) stood at 98.6%; in series [4] (mouse, mouse plasma, murine plasma, 37° C., 4 h, read-out: Percentage of drug remaining), 98%. Also, the fraction remaining at 24 h, 1 g/mL worked out at 98.3% in series [3] (24 h, read-out: Percentage of drug remaining) and 93.4% in series [4] (mouse, mouse plasma, murine plasma, 37° C., 24 h, read-out: Percentage of drug remaining). Moreover, the fraction remaining at 48 h, 1 g/mL in series [3] (48 h, read-out: Percentage of drug remaining) came out at 97.9%; in series [4] (mouse, mouse plasma, murine plasma, 37° C., 48 h, read-out: Percentage of drug remaining), 86.5%. Besides, the “Percentage of drug remaining (summary statement)” value in series [4] (murine plasma or PBS, in vitro incubation at constant temperature, over the study) was “above 95%”.
